# Measurements from IntAct's records for PubMed 25946333.
# Tests used:
# [1] = target: T1, nemp1_mouse Nemp1 (UniProt Q6ZQE4)
# T1 sequence: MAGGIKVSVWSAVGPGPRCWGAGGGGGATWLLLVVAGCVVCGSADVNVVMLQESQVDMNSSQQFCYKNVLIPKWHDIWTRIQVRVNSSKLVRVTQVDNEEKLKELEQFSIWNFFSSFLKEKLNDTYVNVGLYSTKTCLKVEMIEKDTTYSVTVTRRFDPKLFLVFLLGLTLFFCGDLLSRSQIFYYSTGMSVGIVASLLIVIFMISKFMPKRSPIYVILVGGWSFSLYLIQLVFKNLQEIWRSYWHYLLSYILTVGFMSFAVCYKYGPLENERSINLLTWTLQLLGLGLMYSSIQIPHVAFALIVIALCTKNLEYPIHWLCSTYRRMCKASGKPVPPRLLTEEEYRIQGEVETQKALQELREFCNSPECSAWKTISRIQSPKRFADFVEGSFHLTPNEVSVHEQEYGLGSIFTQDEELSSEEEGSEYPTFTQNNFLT
# [2] = target: T1, nemp1_mouse Nemp1; remark: listed apart in the source
Substance,effect of a mutation on the interaction [1],effect of a mutation on the interaction [2]
GTP-binding nuclear protein Ran (Mus musculus) (from UniProt P62827) T42A,disrupting interaction strength,–
GTP-binding nuclear protein Ran (Mus musculus) (from UniProt P62827) T24N,disrupting interaction strength,decreasing interaction strength
GTP-binding nuclear protein Ran (Mus musculus) (from UniProt P62827) Q69L,with no effect,–
